Results reported in patent US10364296B2, “Antibodies specific for MMP9” (CALYPSO BIOTECH SA, priority 2014, dated 2019).
Positions count from the first letter of the chain named. Values belong to the molecule of their own block, whether it stands above or below them.

Experiments:
[1] = biological target: Human MMP9 (i.e. activated MMP9) (Homo sapiens, UniProt P14780); experiment: MMP9 assay: DQ-gelatin digestion by pre-activated (caspase-cleaved) MMP9; assay type: biochemical; details: MMP9 assay with highly purified activated MMP9
Method: The functional neutralization of MMP9 catalytic activity towards the fluorogenic polymer substrate DQ-gelatin by some antibodies according to the invention was evaluated. The signature activity of MMP9 (and MMP2) is gelatin degradation. Gelatin is essentially an irreversibly denatured form derived from various collagens, several of which are considered key physiological substrates for MMP9. Unlike small peptidic substrates, the binding and recognition of gelatin (similar to that of collagen) by MMP9 is complex and known to be mediated via regions of the molecule other than the active site, including the fibronectin and PEX domains. In order to retain these physiologically relevant ‘exosite’ interactions and to facilitate the isolation of potential ‘non-classical’ allosteric neutralizer classes, a fluorogenically quenched soluble gelatin polymer (DQ-gelatin) was chosen as the key substrate for plate-based screening and ranking purposes. Substrate hydrolysis was mediated by truncated fragment of MMP9 (ie. pro-domain removed). The assay was performed in two modes. The first mode, named “MMP9 assay”, utilized pre-activated MMP9 (from engineered MMP9 containing a LETD caspase 8 recognition motif at the native cleavage junction) in which the pro-domain was first removed via directed caspase 8 cleavage. […]

MMP3-activated MMP9 [2] = biological target: T1, MMP3-activated MMP9 (Homo sapiens, UniProt P14780); experiment: Surface Plasmon Resonance (BIAcore) binding; details: for SPR binding to MMP3-activated MMP9 (in words): sensograms, 4.7 to 150 nM
Method: (§1) Sensorgrams of kinetics of binding are reported. Resonance unit (RU). All y axis-response (RU); all x axis-time (s).
(§2) Binding of anti-MMP9 antibodies towards recombinant human MMP9 antigen was characterized using standard Surface Plasmon Resonance (SPR) assay. In a first step, anti-MMP9 antibodies were captured by anti-human Fc antibody immobilized onto a BIAcore sensor chip. In a second step, pro-MMP9 or MMP3-activated MMP9 were titrated from 4.7 to 150 nM in 2-fold dilutions.

human pro-MMP9 [3] = biological target: T2, human pro-MMP9 (Homo sapiens, UniProt P14780); experiment: Surface Plasmon Resonance (BIAcore) binding; details: for SPR binding to pro-MMP9 (in words): sensograms, 4.7 to 150 nM
Method: as §1, §2

MMP3-activated MMP9 [4] = biological target: T1, MMP3-activated MMP9; experiment: Direct binding ELISA; details: biotinylated antibody, antigen coated at 2.5 μg/ml
Method: (§3) MMP9 antigens were coated at 2.5 μg/ml. Controls were streptavidin-HRP alone (closed triangles), or human IgG4 isotype control plus biotinylated anti-human-IgG second step Fab antibody (closed squares).
(§4) Direct binding capacities of anti-MMP9 antibodies towards human pro-MMP9 and MMP3-activated human MMP9, respectively, were assessed using a standard ELISA protocol. Briefly, 96-well plates were coated with (2.5 μg/ml) of either form of MMP9 for 16 h at room temperature.

human pro-MMP9 [5] = biological target: T2, human pro-MMP9; experiment: Direct binding ELISA; details: biotinylated antibody, antigen coated at 2.5 μg/ml
Method: as §3, §4

MMP3-activated MMP9 [6] = biological target: T1, MMP3-activated MMP9; experiment: Competitive binding ELISA; details: pre-incubation with 50 μg/mL purified antibody
Text: For panels A, B, C, results are expressed as mean±SD of corrected absorbance (A450-A620) for each condition performed in duplicate.

[7] = tested on: MGC803 human gastric cancer cells; experiment: Cancer cell invasion through Matrigel-coated transwell; assay type: cell-based; details: 10 μg/ml antibody, PMA 100 ng/ml, 16 h
Method: MGC803 human gastric cancer cells were incubated with Phorbol 12-Myristate 13-Acetate (PMA) and with a broad chemical inhibitor of MMPs (GM-6001), anti-MMP9 antibody (F20-VH/B08-VLc), isotype control or medium alone. Invading cells were quantified after 16 hours using Calcein-AM. Each condition was performed in duplicates and means and SD of fluorescence units are reported.
Cancer cell line invasion was assessed using Matrigel-coated transwells. Insert membranes of transwells (provided in kit from Cultrex—3455-024) were coated with basement membrane extract (BME ×0.5; provided in Cultrex's kit) and incubated for 24 h at 37° C. Meanwhile, MGC803 (human gastric cancer cell line—Easy-Bio, China) were starved in RPMI culture medium (Gibco—52400025) deprived of serum (starving medium). […] One hundred μl of treated cells were seeded into Matrigel-coated transwells and 500 μl of RPMI medium containing 10% FCS were added in the lower side of the transwell. Plates were incubated for 16 h at 37° C. Invading cells were quantified by incubation of the bottom side of transwell membrane with Calcein-AM, whose cleavage into fluorescent Calcein is proportional to cell counts. Emitted fluorescent signal (Excitation at 485 nm, emission at 520 nm) reflects efficiency of cell invasion through Matrigel.

[8] = tested on: heterotopic intestinal grafts in C57BL/6 mice; experiment: Heterotopic transplant mouse model of intestinal fibrosis; assay type: in vivo
Method: Donor (green fluorescent protein-marked C57BL/6-Tg UBC-GFP mice) small bowel resections were transplanted subcutaneously into the neck of recipient C57BL/6 mice. Mice were injected intraperitoneally at day 5, 8 and 10 with 30 mg/kg of an anti-MMP9 antibody of the invention (F20-VH/B08-VLc, variant F20-VH-GL1-V4-V9/B08-VL-GL6c), or isotype control antibody (IgG4), 5 mice per group. Small bowel grafts were explanted 14 days after transplantation. After explant, each graft was divided into three equal segments. The central segment was fixed in 4% formalin, and prepared for histopathological assessment. The two outer segments were snap frozen in liquid nitrogen and stored at −70° C. until RNA or protein extraction.
Histologic cross sections were stained with Sirius red to highlight collagen (red stain). Collagen layer thickness was determined by an independent investigator blinded to the type of experiment. Microscopic assessment was done using an AxioCam MRc5 on a Zeiss Axiophot microscope. The thickness of the collagen layer was measured with the AxioVision Release 4.7.2 software (Zeiss). Thickness was calculated from eight places in representative areas (in eight samples investigated for each time point) at 100-fold magnification. Statistical analyses were performed using PRISM 6 software. Unpaired t test was used for comparison among groups.

[9] = tested on: DSS-induced colitis in BALB/c mice; experiment: DSS-induced colitis mouse model; assay type: in vivo; details: Day 14, vs isotype control
Method: The therapeutic efficacy of an anti-MMP9 antibody according to the invention was assessed in a DSS-induced colitis model in BALB/c mice. Colitis was induced with 4% (w/v) DSS in drinking water for 5 days. Doses of 30 mg/kg F20-VH/B08-VLc (variant F20-VH-GL1-V4-V9/B08-VL-GL6c) or isotype control (IgG4) antibodies were intraperitoneally injected to groups of 10 mice at day 6, 9 and 12, and animals were sacrificed at day 14.
The course of the disease was evaluated in blind fashion by video endoscopy of the lower colon at days 6, 10 and 14. Colitis was scored visually on a scale of 0-14 based on the degree of ulceration, vascularisation, and granularity present in tissue and colon length involved as follows: ulceration (0, 1, 2 or 3), masking of vascularisation (0, 1, 2 or 3), granularity (0, 1, 2 or 3), erythema (0, 1, 2 or 3), length involved (0, 1: localized, 2: diffuse). Each mouse was assigned a single endoscopy score corresponding to the damage observed throughout the entire length of the colon examined.
At study termination (Day 14), distal colon was excised from each mouse, formalin-fixed and embedded in paraffin and sectioned for histology. All sections were stained with haematoxylin and eosin and examined in a fashion blind as to treatment groups. Tissues were scored for epithelium damage and infiltration of inflammatory cells according to the scoring scale of […] for each parameter. The histology score represents the sum of the epithelium damage and infiltration of inflammatory cell scores, and thus ranges from 0 to 8.

T1 sequence (P14780 107-707): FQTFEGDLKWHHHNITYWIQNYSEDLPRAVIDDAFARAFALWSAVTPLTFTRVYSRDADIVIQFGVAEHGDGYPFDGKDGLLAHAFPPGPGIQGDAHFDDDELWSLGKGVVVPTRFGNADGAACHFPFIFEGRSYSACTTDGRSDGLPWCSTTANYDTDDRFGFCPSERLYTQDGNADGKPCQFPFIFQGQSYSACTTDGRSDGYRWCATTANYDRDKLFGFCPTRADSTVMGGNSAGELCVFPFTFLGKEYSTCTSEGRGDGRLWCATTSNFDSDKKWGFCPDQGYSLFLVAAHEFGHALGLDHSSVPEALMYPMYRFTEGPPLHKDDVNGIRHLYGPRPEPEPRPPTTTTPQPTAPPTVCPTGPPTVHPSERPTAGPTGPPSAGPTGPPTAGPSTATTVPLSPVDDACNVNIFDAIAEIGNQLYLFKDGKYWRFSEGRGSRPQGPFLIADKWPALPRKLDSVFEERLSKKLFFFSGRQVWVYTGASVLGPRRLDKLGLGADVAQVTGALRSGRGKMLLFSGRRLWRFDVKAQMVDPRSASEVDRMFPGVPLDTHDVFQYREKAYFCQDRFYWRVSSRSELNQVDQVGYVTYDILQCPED
T2 sequence (P14780 20-707): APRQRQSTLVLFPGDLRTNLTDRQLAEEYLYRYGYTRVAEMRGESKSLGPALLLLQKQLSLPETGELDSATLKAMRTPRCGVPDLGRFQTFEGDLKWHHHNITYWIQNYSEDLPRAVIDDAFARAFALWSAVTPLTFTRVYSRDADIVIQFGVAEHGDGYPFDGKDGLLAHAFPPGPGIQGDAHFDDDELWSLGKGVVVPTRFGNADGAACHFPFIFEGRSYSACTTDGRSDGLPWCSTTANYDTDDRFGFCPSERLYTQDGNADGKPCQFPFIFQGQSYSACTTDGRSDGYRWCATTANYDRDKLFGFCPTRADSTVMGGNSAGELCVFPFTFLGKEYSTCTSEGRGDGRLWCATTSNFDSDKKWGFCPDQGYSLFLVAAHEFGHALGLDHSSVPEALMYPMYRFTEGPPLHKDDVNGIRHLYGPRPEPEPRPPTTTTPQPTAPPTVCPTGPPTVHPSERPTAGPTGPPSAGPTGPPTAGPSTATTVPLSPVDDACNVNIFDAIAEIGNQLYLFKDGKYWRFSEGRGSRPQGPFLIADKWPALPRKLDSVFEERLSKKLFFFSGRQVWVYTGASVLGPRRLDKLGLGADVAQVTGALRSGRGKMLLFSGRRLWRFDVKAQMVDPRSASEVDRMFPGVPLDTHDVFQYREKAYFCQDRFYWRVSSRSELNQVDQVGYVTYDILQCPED
Human MMP9 (i.e. activated MMP9), sequence (P14780 107-707 limits assumed): as the sequence (P14780 107-707) above

- decrease of DQ-gelatin digestion (in words) [1]: inactive
- SPR binding to MMP3-activated MMP9 (in words) (MMP3-activated MMP9 [2]): bind well
- SPR binding to pro-MMP9 (in words) (human pro-MMP9 [3]): binds well
- ELISA direct binding to MMP3-activated MMP9 (in words) (MMP3-activated MMP9 [4]): strongly bind
- ELISA direct binding to pro-MMP9 (in words) (human pro-MMP9 [5]): binds well
Molecule: comparative antibody 1: antibody known as AB0041, heavy chain SEQ ID NO: 44, light chain SEQ ID NO: 45; mouse monoclonal, WO 2013/130078 [reference compound]

- SPR binding to MMP3-activated MMP9 (in words) (MMP3-activated MMP9 [2]): bind well
- binding observed to pro-MMP9 (human pro-MMP9 [3]; SPR, at a 150 nM antibody concentration): < 1%
- SPR binding to pro-MMP9 (in words) (human pro-MMP9 [3]): minimal signal
- ELISA direct binding to MMP3-activated MMP9 (in words) (MMP3-activated MMP9 [4]): strongly bind
B1: F20-VH-GL1-V4-V9/B08-VL-GL6c: VH SEQ ID NO: 19; VL SEQ ID NO: 70; reformatted as human IgG4; the F20-VH/B08-VLc variant of Examples 5-12 (antibody, V domains shown)
VH: EVQLVESGGGLVQPGRSLRLSCAASGFTFNDYPMHWVRQAPGKGLEWVSGISSRSGSVGYAESVKGRFTISRDNAKNSLYLQMNSLRAEDTALYYCARDKIYYGSGSYDFYYYYGMDVWGQGTTVTVSS
VL: QSALTQPASVSGSPGQSITISCTGTSNDVGAYNRVSWYQQHPGKAPKLMIYGVSNRPSGVSNRFSGSKSGNTASLTISGLQAEDEADFYCTSYSSSTTSYVVFGGGTKVTVL
modifications: human IgG4 format; heavy chain F20-VH-GL1-V4-V9; light chain B08-VL-GL6c
- ELISA direct binding to pro-MMP9 (in words) (human pro-MMP9 [5]): only shows significant binding to pro-MMP9 at the highest concentration tested
- competition with biotinylated comparative antibody 1 for binding to MMP9 (in words) (MMP3-activated MMP9 [6]): does not prevent binding of comparative antibody 1
- inhibition of migration of MGC803 cancer cells through Matrigel [7]: efficiently inhibits migration
- occlusion of the intestinal lumen of the graft ([8]; 14 days after transplantation): partial occlusion of the intestinal lumen

- Kd (MMP3-activated MMP9 [2]; SPR, MMP3-activated MMP9, calculated from the curves, read-out: KD (nM), antigen MMP9): 11.7 nM
- Kd (human pro-MMP9 [3]; SPR, antibody captured by anti-human Fc, calculated from the curves, read-out: KD (nM), antigen Pro-MMP9): > 15000 nM
B2: F20-VH/B08-VLc: VH SEQ ID NO: 11; VL SEQ ID NO: 69; HO candidate selected for lead optimization; name also used loosely for its tested variant (antibody, V domains shown)
VH: B1 VH with R54N, E62D, A88D, L93V
VL: B1 VL with A8R, I18V, M49L, N62T, Q81L, E83A
modifications: heavy chain F20-VH; light chain B08-VLc
- mean endoscopy score ([9]; 30 mg/kg i.p. day 6, 9, 12, p=0.005): significant improvement
- mean colitis severity score (histology) ([9]; 30 mg/kg i.p.): decrease
- mean score for epithelial damage ([9]; 30 mg/kg i.p.): decreased
- mean score for infiltration of inflammatory cells ([9]; 30 mg/kg i.p.): decreased
- loss of epithelial structure in heterotopic intestinal grafts ([8]; 30 mg/kg i.p. day 5, 8, 10, day 14, vs isotype control): significantly protects against loss of epithelial structure
- collagen layer thickness in heterotopic intestinal grafts ([8]; 30 mg/kg i.p. day 5, 8, 10, day 14, vs isotype control, p<0.0001): reduces collagen layer thickness
